# Patent CN116199772A (YIDAO BIOTECHNOLOGY SUZHOU CO LTD, dated 2023)
# T1: HPV 33亚型抗原 (Human papillomavirus type 33, UniProt P06416 1-499)
# T1 construct: Called only 'HPV 33 antigen'
# T1 sequence: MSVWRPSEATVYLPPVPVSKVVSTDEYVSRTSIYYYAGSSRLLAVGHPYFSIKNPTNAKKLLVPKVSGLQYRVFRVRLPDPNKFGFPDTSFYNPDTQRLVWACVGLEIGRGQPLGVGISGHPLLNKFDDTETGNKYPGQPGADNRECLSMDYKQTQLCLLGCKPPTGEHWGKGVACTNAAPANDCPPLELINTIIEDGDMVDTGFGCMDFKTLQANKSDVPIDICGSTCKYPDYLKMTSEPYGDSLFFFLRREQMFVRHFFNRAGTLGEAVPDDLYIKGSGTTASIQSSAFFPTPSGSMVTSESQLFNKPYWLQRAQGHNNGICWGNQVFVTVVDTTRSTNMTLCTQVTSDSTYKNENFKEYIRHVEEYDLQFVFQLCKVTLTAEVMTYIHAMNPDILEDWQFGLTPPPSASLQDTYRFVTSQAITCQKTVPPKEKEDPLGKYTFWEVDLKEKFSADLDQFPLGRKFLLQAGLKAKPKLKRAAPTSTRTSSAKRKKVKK
# T2: HPV 58亚型抗原 (Human papillomavirus type 58, UniProt P26535 27-524)
# T2 construct: Called only 'HPV 58 antigen'
# T2 sequence: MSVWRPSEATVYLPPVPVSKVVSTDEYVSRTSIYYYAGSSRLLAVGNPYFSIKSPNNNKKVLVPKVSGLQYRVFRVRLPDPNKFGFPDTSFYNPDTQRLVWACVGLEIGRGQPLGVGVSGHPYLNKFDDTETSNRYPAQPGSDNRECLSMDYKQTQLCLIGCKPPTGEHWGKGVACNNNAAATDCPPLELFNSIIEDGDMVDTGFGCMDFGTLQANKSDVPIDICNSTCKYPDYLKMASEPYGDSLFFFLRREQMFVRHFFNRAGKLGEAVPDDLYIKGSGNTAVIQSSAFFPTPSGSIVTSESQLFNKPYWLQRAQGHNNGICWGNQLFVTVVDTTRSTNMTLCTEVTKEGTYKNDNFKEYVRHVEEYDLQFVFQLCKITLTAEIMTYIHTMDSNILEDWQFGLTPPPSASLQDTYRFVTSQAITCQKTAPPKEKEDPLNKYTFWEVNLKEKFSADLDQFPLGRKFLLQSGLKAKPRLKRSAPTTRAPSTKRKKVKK
# T3: HPV 45亚型抗原 (Human papillomavirus type 45, UniProt P36741 30-539)
# T3 construct: Called only 'HPV 45 antigen'
# T3 sequence: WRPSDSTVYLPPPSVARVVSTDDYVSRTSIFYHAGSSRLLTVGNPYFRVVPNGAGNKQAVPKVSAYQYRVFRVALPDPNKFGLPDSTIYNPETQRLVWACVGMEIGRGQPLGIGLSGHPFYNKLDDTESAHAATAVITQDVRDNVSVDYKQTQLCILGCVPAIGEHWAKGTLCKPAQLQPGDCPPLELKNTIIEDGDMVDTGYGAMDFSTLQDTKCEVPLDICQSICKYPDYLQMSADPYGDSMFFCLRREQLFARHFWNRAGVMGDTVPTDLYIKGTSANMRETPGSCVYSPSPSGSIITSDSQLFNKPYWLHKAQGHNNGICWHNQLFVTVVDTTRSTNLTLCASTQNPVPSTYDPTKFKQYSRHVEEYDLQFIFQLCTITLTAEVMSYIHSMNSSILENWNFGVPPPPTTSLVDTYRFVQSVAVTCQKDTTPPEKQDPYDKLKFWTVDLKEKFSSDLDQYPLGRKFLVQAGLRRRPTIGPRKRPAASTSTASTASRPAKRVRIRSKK
# T4: HPV11亚型抗原 (Human papillomavirus type 11, UniProt P04012 1-501)
# T4 construct: Called only 'HPV11 antigen'
# T4 sequence: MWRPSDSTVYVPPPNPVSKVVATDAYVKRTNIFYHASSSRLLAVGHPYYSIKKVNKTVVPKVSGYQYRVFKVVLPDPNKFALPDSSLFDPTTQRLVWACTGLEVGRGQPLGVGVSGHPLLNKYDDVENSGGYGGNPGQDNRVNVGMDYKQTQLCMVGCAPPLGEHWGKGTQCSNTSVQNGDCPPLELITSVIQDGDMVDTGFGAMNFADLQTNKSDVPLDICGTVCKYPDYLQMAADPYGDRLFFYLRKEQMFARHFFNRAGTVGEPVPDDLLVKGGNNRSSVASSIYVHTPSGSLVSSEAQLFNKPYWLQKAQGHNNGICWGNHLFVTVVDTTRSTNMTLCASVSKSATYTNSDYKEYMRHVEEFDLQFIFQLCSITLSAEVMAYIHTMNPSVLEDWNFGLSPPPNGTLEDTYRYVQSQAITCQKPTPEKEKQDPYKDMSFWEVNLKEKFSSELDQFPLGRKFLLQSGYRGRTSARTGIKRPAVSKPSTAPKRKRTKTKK
# T5: HPV18亚型抗原 (Human papillomavirus type 18, UniProt P06794 62-568)
# T5 construct: Called only 'HPV18 antigen'
# T5 sequence: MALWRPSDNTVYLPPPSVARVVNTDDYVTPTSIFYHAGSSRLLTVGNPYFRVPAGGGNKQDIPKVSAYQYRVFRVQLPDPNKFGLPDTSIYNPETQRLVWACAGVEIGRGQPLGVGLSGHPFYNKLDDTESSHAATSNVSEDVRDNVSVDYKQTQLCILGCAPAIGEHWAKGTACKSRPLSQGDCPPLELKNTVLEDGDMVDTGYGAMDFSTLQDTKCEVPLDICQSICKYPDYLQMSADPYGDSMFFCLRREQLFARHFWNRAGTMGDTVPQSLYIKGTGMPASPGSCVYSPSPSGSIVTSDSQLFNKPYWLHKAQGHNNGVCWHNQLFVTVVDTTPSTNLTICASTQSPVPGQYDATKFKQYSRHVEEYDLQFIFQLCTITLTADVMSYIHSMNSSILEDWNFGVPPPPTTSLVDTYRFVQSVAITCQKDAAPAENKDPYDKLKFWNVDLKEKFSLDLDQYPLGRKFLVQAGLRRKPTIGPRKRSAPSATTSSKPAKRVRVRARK
# T6: HPV 16亚型抗原 (Human papillomavirus type 16, UniProt P03101 1-505)
# T6 construct: Called only 'HPV 16 antigen'
# T6 sequence: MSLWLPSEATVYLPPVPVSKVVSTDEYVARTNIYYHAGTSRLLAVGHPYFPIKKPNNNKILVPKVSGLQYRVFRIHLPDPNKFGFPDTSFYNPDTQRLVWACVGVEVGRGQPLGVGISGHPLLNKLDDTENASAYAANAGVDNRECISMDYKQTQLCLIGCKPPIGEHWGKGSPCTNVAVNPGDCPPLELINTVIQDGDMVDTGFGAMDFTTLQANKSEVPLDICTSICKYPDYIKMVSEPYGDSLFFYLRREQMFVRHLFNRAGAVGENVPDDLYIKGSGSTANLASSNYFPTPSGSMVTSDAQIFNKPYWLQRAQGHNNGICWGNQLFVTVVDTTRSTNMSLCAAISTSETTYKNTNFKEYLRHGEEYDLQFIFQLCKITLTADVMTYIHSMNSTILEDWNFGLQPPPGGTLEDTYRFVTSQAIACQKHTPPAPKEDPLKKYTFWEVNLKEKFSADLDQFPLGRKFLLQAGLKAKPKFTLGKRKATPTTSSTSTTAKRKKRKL
# B1: HPV31型单克隆抗体(7H9) (antibody, V domains shown)
# VH: QIQLVQSGPELKKPGETVKISCKASGYTFTNYGMNWVKQAPGKGLKWMGWINTYTGEPTYADDFKGRFAFSLETSANTAYLQITNLKNEDMATYFCARRITMEYYYGLDCWGQGTSVTVSS
# VL: QAVVTQESALTTSPGETVTLTCRSSTGAVTTSNYANWVQEKPDHLFSGLIGGTNNRVPGVPARFSGSLIGDKAALTITGAQTEDEAIYFCALWYSNHWVFGGGTKLTVL
# notes: also called 7H9抗体; HPV31型(7H9)鼠单抗
# Tests used:
# Test in all cases: indirect ELISA, cross-reaction on 9 HPV type antigens
# HPV 33亚型抗原 = biological target: T1, HPV 33亚型抗原
# HPV 58亚型抗原 = biological target: T2, HPV 58亚型抗原
# HPV 45亚型抗原 = biological target: T3, HPV 45亚型抗原
# HPV11亚型抗原 = biological target: T4, HPV11亚型抗原
# HPV18亚型抗原 = biological target: T5, HPV18亚型抗原
# HPV 16亚型抗原 = biological target: T6, HPV 16亚型抗原
binder,measurement,setting,value
B1,binding result,HPV 33亚型抗原,no binding (tested: 抗原1μg/ml包被; 杂交瘤细胞上清20倍稀释)
same,binding result,HPV 58亚型抗原,no binding (tested: 抗原1μg/ml包被; 杂交瘤细胞上清20倍稀释)
same,binding result,HPV 45亚型抗原,no binding (tested: 抗原1μg/ml包被; 杂交瘤细胞上清20倍稀释)
same,binding result,HPV11亚型抗原,no binding (tested: 抗原1μg/ml包被; 杂交瘤细胞上清20倍稀释)
same,binding result,HPV18亚型抗原,no binding (tested: 抗原1μg/ml包被; 杂交瘤细胞上清20倍稀释)
same,binding result,HPV 16亚型抗原,no binding (tested: 抗原1μg/ml包被; 杂交瘤细胞上清20倍稀释)
